The record followed here is patent publication US20180154038A1.

Where no end group is shown, it is not given here. Where only a bound is given, the exact number is not on record here.

The test addresses human fibrinogen (human) (UniProt P02671). The test is described as follows: cell-based or functional assay.

Sequence of human fibrinogen (human) (P02671 20-629 limits assumed, chain 1 of 3): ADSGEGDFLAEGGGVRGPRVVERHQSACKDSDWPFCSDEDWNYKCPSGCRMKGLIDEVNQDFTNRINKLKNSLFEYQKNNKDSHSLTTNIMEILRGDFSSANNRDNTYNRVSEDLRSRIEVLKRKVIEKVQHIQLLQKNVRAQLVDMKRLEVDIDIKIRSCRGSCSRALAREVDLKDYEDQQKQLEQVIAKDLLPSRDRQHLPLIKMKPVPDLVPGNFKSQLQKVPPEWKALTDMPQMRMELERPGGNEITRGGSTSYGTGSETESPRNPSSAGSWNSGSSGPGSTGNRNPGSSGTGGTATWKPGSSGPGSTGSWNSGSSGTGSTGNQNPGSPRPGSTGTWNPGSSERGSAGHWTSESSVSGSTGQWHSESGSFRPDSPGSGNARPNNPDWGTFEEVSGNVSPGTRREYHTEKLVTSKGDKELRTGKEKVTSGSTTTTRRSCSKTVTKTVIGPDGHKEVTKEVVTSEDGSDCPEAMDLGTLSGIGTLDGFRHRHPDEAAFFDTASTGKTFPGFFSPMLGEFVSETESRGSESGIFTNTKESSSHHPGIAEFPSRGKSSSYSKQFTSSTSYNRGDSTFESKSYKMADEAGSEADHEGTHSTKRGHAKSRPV
Sequence of human fibrinogen (human) (P02675 31-491 limits assumed, chain 2 of 3, further chain): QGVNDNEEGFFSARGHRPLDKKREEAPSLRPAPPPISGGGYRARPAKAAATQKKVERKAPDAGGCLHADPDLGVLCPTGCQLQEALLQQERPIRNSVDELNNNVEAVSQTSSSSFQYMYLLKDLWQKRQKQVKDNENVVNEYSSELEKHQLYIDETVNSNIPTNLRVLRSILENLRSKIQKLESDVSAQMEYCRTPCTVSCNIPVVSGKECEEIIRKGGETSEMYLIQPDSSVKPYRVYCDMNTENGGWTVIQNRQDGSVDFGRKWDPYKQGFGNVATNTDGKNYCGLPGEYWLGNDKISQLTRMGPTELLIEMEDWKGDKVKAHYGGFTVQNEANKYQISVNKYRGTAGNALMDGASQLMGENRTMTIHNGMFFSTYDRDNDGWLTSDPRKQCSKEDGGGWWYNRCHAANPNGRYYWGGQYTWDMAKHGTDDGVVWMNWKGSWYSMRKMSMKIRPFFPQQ
Sequence of human fibrinogen (human) (P02679 other isoform, or with tags, fused parts or gaps limits assumed, chain 3 of 3, further chain): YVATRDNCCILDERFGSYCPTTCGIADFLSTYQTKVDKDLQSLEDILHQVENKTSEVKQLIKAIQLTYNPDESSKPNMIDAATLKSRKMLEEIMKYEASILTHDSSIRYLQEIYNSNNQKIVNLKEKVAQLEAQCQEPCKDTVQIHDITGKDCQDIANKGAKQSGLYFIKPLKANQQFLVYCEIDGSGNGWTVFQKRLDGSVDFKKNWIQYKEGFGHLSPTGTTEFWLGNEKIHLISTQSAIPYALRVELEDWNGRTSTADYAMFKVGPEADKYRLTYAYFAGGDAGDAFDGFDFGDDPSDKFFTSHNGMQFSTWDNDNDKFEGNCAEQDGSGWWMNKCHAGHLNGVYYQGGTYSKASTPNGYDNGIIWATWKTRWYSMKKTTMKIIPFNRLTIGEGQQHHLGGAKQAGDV

B1: Peptide Dendrimer No. 12 (peptide, from a related filing, part only)
peptide: GPRPG
chain: KKKKK
modifications: not fully specified; also: five-arm peptide dendrimer, arms attached by C-terminus to branched core
With B1, the Clotting activity (seconds) in human fibrinogen @ c = 3 mg/ml; HXP12 extracted from HA paste, 0.06 mg/ml; after sterilization, accelerated aging @ 40 C, 2 weeks amounted to 3.6 s; the Clotting activity (seconds) in human fibrinogen @ c = 3 mg/ml; HXP12 extracted from HA paste, 0.06 mg/ml; after sterilization, accelerated aging @ 40 C, 4 weeks came to 5.4 s; the Clotting activity (seconds) in human fibrinogen @ c = 3 mg/ml; HXP12 extracted from HA paste, 0.06 mg/ml; autoclaved @ 121 C is 3.3 s; the Clotting activity (seconds) in human fibrinogen @ c = 3 mg/ml; HXP12 extracted from HA paste, 0.06 mg/ml; non autoclaved was 1 s. Moreover, the Clotting activity (seconds) in human fibrinogen; HXP12 0.05 mg/ml in saline; after sterilization, storage @ 40 C, 4 wks is 0.9 s; the Clotting activity (seconds) in human fibrinogen; HXP12 0.05 mg/ml in saline; after sterilization, storage @ 40 C, 7 wks came out at 1.2 s; the Clotting activity (seconds) in human fibrinogen; HXP12 0.05 mg/ml in saline; after sterilization, storage @ 40 C, 13 wks amounted to 1.1 s; the Clotting activity (seconds) in human fibrinogen; HXP12 0.05 mg/ml in saline; after sterilization, storage @ 40 C, 27 wks is 1.1 s. In addition, the Clotting activity (seconds) in human fibrinogen; HXP12 0.05 mg/ml in saline; autoclaved @ 121 C was 1 s; the Clotting activity (seconds) in human fibrinogen; HXP12 0.05 mg/ml in saline; non autoclaved was determined as 1.1 s; the Clotting activity (seconds) in human plasma; HXP12 extracted from HA paste, 0.1 mg/ml; after sterilization, accelerated aging @ 80 C, 4 hours is 2.8 s; the Clotting activity (seconds) in human plasma; HXP12 extracted from HA paste, 0.1 mg/ml; after sterilization, accelerated aging @ 80 C, 16 hours was 4.8 s. The molecule also showed a Clotting activity (seconds) in human plasma; HXP12 extracted from HA paste, 0.1 mg/ml; autoclaved @ 121 C of 2.6 s; a Clotting activity (seconds) in human plasma; HXP12 extracted from HA paste, 0.1 mg/ml; non autoclaved of 2 s; a clotting time in human plasma, dendrimer 0.25 mg/ml, 37 C of under 1 s.
